In patent publication US20080020978A1 (Amgen, published 2008):
Square brackets hold non-standard residues; d marks the D form. 1Nal = N[C@@H](Cc1cccc2ccccc12)C(=O)O; hArg = N=C(N)NCCCC[C@H](N)C(=O)O; Tic = O=C(O)[C@@H]1Cc2ccccc2CN1; Cit = NC(=O)NCCC[C@H](N)C(=O)O; Nva = CCC[C@H](N)C(=O)O; Aib = CC(C)(N)C(=O)O

target: CGRP1 receptor (CRLR/RAMP1 complex) of human neuroblastoma SK-N-MC cells (human, UniProt Q16602 23-461; O60894 27-148); assay: cell-based or functional assay
Sequence (Q16602 23-461, chain 1 of 2): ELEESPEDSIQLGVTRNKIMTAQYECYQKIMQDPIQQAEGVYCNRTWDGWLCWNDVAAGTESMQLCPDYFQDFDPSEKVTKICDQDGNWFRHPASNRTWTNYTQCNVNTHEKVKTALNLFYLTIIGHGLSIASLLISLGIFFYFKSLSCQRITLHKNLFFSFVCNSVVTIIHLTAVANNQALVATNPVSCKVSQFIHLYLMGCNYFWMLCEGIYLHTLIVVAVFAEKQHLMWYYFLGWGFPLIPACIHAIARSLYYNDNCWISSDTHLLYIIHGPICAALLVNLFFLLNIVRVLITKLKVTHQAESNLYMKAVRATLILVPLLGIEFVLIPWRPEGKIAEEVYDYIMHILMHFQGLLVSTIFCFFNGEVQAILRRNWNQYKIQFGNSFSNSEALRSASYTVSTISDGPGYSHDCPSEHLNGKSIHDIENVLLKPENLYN
Sequence (O60894 27-148, chain 2 of 2): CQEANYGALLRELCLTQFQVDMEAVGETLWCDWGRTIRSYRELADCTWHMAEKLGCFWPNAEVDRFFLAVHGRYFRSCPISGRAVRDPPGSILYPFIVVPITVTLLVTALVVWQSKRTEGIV

Binder	PEG-peptide IC50	Peptide IC50
Ac-WVTHQLAGLLS[Cit]SGGVV[hArg]KNFVPTDVGPFAF-NH2 (also: PEG-conjugated, in most cases at Lys25) [PEG-peptide of SEQ ID NO 884]	8.87 nM	–
Ac-WVTH[Cit]LAGLAS[Cit]SGGVVRKNFVPTDVGPFAF-NH2 (also: PEG-conjugated, in most cases at Lys25) [PEG-peptide of SEQ ID NO 870]	> 1000 nM	–
Ac-[1Nal]VTH[Cit]LAGLLS[Cit]SGGVVRKNFVPTDVGPFAF-NH2 (also: PEG-conjugated, in most cases at Lys25) [PEG-peptide of SEQ ID NO 872]	11 nM	–
Ac-WVTH[Cit]LAGLAS[Cit]SGGVVRKNFVPTDVGPFAF-NH2 [SEQ ID NO 870]	–	16.1 nM
Ac-WVTH[Cit]LAGLASRPGGVVRKNFVPTDVGPFAF-NH2 (SMILES CC(=O)N[C@@H](Cc1c[nH]c2ccccc12)C(=O)N[C@H](C(=O)N[C@H](C(=O)N[C@@H](Cc1c[nH]cn1)C(=O)N[C@@H](CCCNC(N)=O)C(=O)N[C@@H](CC(C)C)C(=O)N[C@@H](C)C(=O)NCC(=O)N[C@@H](CC(C)C)C(=O)N[C@@H](C)C(=O)N[C@@H](CO)C(=O)N[C@@H](CCCNC(=N)N)C(=O)N1CCC[C@H]1C(=O)NCC(=O)NCC(=O)N[C@H](C(=O)N[C@H](C(=O)N[C@@H](CCCNC(=N)N)C(=O)N[C@@H](CCCCN)C(=O)N[C@@H](CC(N)=O)C(=O)N[C@@H](Cc1ccccc1)C(=O)N[C@H](C(=O)N1CCC[C@H]1C(=O)N[C@H](C(=O)N[C@@H](CC(=O)O)C(=O)N[C@H](C(=O)NCC(=O)N1CCC[C@H]1C(=O)N[C@@H](Cc1ccccc1)C(=O)N[C@@H](C)C(=O)N[C@@H](Cc1ccccc1)C(N)=O)C(C)C)[C@@H](C)O)C(C)C)C(C)C)C(C)C)[C@@H](C)O)C(C)C) [SEQ ID NO 869]	–	6.19 nM
Ac-WVTHRLAGLLSRSGGVVRKNFV[Aib]TDVGPFAF-NH2 (SMILES CC(=O)N[C@@H](Cc1c[nH]c2ccccc12)C(=O)N[C@H](C(=O)N[C@H](C(=O)N[C@@H](Cc1c[nH]cn1)C(=O)N[C@@H](CCCNC(=N)N)C(=O)N[C@@H](CC(C)C)C(=O)N[C@@H](C)C(=O)NCC(=O)N[C@@H](CC(C)C)C(=O)N[C@@H](CC(C)C)C(=O)N[C@@H](CO)C(=O)N[C@@H](CCCNC(=N)N)C(=O)N[C@@H](CO)C(=O)NCC(=O)NCC(=O)N[C@H](C(=O)N[C@H](C(=O)N[C@@H](CCCNC(=N)N)C(=O)N[C@@H](CCCCN)C(=O)N[C@@H](CC(N)=O)C(=O)N[C@@H](Cc1ccccc1)C(=O)N[C@H](C(=O)NC(C)(C)C(=O)N[C@H](C(=O)N[C@@H](CC(=O)O)C(=O)N[C@H](C(=O)NCC(=O)N1CCC[C@H]1C(=O)N[C@@H](Cc1ccccc1)C(=O)N[C@@H](C)C(=O)N[C@@H](Cc1ccccc1)C(N)=O)C(C)C)[C@@H](C)O)C(C)C)C(C)C)C(C)C)[C@@H](C)O)C(C)C) [SEQ ID NO 879]	–	4.2 nM
WVTHXLAGLLSXSGGVVRKNFVPTDVGPFAF (Ac-WVTH[hArg]LAGLLS[hArg]SGGVVRKNFVPTDVGPFAF-NH2) [SEQ ID NO 866]	–	2.1 nM
WVTHXLAGLLSXSGGVVXKNFVPTDVGPFAF (Ac-WVTH[Cit]LAGLLS[Cit]SGGVV[hArg]KNFVPTDVGPFAF-NH2; PEG-conjugated (Table 2C: in most cases at Lys^25)) [PEG-peptide of SEQ ID NO 871]	3.22 nM	–
WVTHXLAGLLSXSGGVVRKNFVXTDVGPFAF (Ac-WVTH[Cit]LAGLLS[Cit]SGGVVRKNFV[Hyp]TDVGPFAF-NH2) [SEQ ID NO 877]	–	1.81 nM
WVTHXLAGLLSXSGGVVRKNFVPTDVGPFAF (Ac-WVTH[NMeArg]LAGLLS[NMeArg]SGGVVRKNFVPTDVGPFAF-NH2) [SEQ ID NO 875]	–	1.63 nM
WVTHXLAGLLSXSGGVVXKNFVPTDVGPFAF (Ac-WVTH[Cit]LAGLLS[Cit]SGGVV[hArg]KNFVPTDVGPFAF-NH2) [SEQ ID NO 871]	–	0.41 nM
WVTHXLAGLLSXSGGVVXKNFVPTDVGPFAF (Ac-WVTH[Cit]LAGLLS[hArg]SGGVV[hArg]KNFVPTDVGPFAF-NH2; PEG-conjugated (Table 2C: in most cases at Lys^25)) [PEG-peptide of SEQ ID NO 880]	2.06 nM	–
WVTHXLAGLLSXSGGVVRKNFVPTDVGPFAF (Ac-WVTH[hArg]LAGLLS[hArg]SGGVVRKNFVPTDVGPFAF-NH2; PEG-conjugated (Table 2C: in most cases at Lys^25)) [PEG-peptide of SEQ ID NO 866]	0.37 nM	–
Ac-[1Nal]VTH[Cit]LAGLLS[Cit]SGGVVRKNFVPTDVGPFAF-NH2 (SMILES CC(=O)N[C@@H](Cc1cccc2ccccc12)C(=O)N[C@H](C(=O)N[C@H](C(=O)N[C@@H](Cc1c[nH]cn1)C(=O)N[C@@H](CCCNC(N)=O)C(=O)N[C@@H](CC(C)C)C(=O)N[C@@H](C)C(=O)NCC(=O)N[C@@H](CC(C)C)C(=O)N[C@@H](CC(C)C)C(=O)N[C@@H](CO)C(=O)N[C@@H](CCCNC(N)=O)C(=O)N[C@@H](CO)C(=O)NCC(=O)NCC(=O)N[C@H](C(=O)N[C@H](C(=O)N[C@@H](CCCNC(=N)N)C(=O)N[C@@H](CCCCN)C(=O)N[C@@H](CC(N)=O)C(=O)N[C@@H](Cc1ccccc1)C(=O)N[C@H](C(=O)N1CCC[C@H]1C(=O)N[C@H](C(=O)N[C@@H](CC(=O)O)C(=O)N[C@H](C(=O)NCC(=O)N1CCC[C@H]1C(=O)N[C@@H](Cc1ccccc1)C(=O)N[C@@H](C)C(=O)N[C@@H](Cc1ccccc1)C(N)=O)C(C)C)[C@@H](C)O)C(C)C)C(C)C)C(C)C)[C@@H](C)O)C(C)C) [SEQ ID NO 872]	–	1.6 nM
Ac-WVTHRLAGLLSRSGGVVRKNFV[Tic]TDVGPFAF-NH2 (SMILES CC(=O)N[C@@H](Cc1c[nH]c2ccccc12)C(=O)N[C@H](C(=O)N[C@H](C(=O)N[C@@H](Cc1c[nH]cn1)C(=O)N[C@@H](CCCNC(=N)N)C(=O)N[C@@H](CC(C)C)C(=O)N[C@@H](C)C(=O)NCC(=O)N[C@@H](CC(C)C)C(=O)N[C@@H](CC(C)C)C(=O)N[C@@H](CO)C(=O)N[C@@H](CCCNC(=N)N)C(=O)N[C@@H](CO)C(=O)NCC(=O)NCC(=O)N[C@H](C(=O)N[C@H](C(=O)N[C@@H](CCCNC(=N)N)C(=O)N[C@@H](CCCCN)C(=O)N[C@@H](CC(N)=O)C(=O)N[C@@H](Cc1ccccc1)C(=O)N[C@H](C(=O)N1Cc2ccccc2C[C@H]1C(=O)N[C@H](C(=O)N[C@@H](CC(=O)O)C(=O)N[C@H](C(=O)NCC(=O)N1CCC[C@H]1C(=O)N[C@@H](Cc1ccccc1)C(=O)N[C@@H](C)C(=O)N[C@@H](Cc1ccccc1)C(N)=O)C(C)C)[C@@H](C)O)C(C)C)C(C)C)C(C)C)[C@@H](C)O)C(C)C) [SEQ ID NO 876]	–	2.33 nM
Ac-WVTH[Cit]LAGLLSRPGGVVRKNFVPTDVGPFAF-NH2 (SMILES CC(=O)N[C@@H](Cc1c[nH]c2ccccc12)C(=O)N[C@H](C(=O)N[C@H](C(=O)N[C@@H](Cc1c[nH]cn1)C(=O)N[C@@H](CCCNC(N)=O)C(=O)N[C@@H](CC(C)C)C(=O)N[C@@H](C)C(=O)NCC(=O)N[C@@H](CC(C)C)C(=O)N[C@@H](CC(C)C)C(=O)N[C@@H](CO)C(=O)N[C@@H](CCCNC(=N)N)C(=O)N1CCC[C@H]1C(=O)NCC(=O)NCC(=O)N[C@H](C(=O)N[C@H](C(=O)N[C@@H](CCCNC(=N)N)C(=O)N[C@@H](CCCCN)C(=O)N[C@@H](CC(N)=O)C(=O)N[C@@H](Cc1ccccc1)C(=O)N[C@H](C(=O)N1CCC[C@H]1C(=O)N[C@H](C(=O)N[C@@H](CC(=O)O)C(=O)N[C@H](C(=O)NCC(=O)N1CCC[C@H]1C(=O)N[C@@H](Cc1ccccc1)C(=O)N[C@@H](C)C(=O)N[C@@H](Cc1ccccc1)C(N)=O)C(C)C)[C@@H](C)O)C(C)C)C(C)C)C(C)C)[C@@H](C)O)C(C)C) [SEQ ID NO 868]	–	3 nM
Ac-WVTH[Cit][Nva]AG[Nva][Nva]T[Cit]SGGVVRKNFVPTDVGPFAF-NH2 (SMILES CCC[C@H](NC(=O)CNC(=O)[C@H](C)NC(=O)[C@H](CCC)NC(=O)[C@H](CCCNC(N)=O)NC(=O)[C@H](Cc1c[nH]cn1)NC(=O)[C@@H](NC(=O)[C@@H](NC(=O)[C@H](Cc1c[nH]c2ccccc12)NC(C)=O)C(C)C)[C@@H](C)O)C(=O)N[C@@H](CCC)C(=O)N[C@H](C(=O)N[C@@H](CCCNC(N)=O)C(=O)N[C@@H](CO)C(=O)NCC(=O)NCC(=O)N[C@H](C(=O)N[C@H](C(=O)N[C@@H](CCCNC(=N)N)C(=O)N[C@@H](CCCCN)C(=O)N[C@@H](CC(N)=O)C(=O)N[C@@H](Cc1ccccc1)C(=O)N[C@H](C(=O)N1CCC[C@H]1C(=O)N[C@H](C(=O)N[C@@H](CC(=O)O)C(=O)N[C@H](C(=O)NCC(=O)N1CCC[C@H]1C(=O)N[C@@H](Cc1ccccc1)C(=O)N[C@@H](C)C(=O)N[C@@H](Cc1ccccc1)C(N)=O)C(C)C)[C@@H](C)O)C(C)C)C(C)C)C(C)C)[C@@H](C)O) [SEQ ID NO 873]	–	63 nM
Ac-WVTH[Cit]LAGLLSQSGGVV[hArg]KNFVPTDVGPFAF-NH2 (also: PEG-conjugated, in most cases at Lys25) [PEG-peptide of SEQ ID NO 883]	7.42 nM	–
Ac-WVTH[Cit]LAGLASRPGGVVRKNFVPTDVGPFAF-NH2 (also: PEG-conjugated, in most cases at Lys25) [PEG-peptide of SEQ ID NO 869]	565 nM	–
Ac-WVTH[Cit]LAGLLSRPGGVVRKNFVPTDVGPFAF-NH2 (also: PEG-conjugated, in most cases at Lys25) [PEG-peptide of SEQ ID NO 868]	108 nM	–
WVTHRXAGLLSRXGGVVRKNFVPTDVGPFAF (Ac-WVTHR[NMeLeu]AGLLSR[NMeSer]GGVVRKNFVPTDVGPFAF-NH2) [SEQ ID NO 874]	–	2.92 nM
WVTHRXAGLLSRXGGVVRKNFVPTDVGPFAF (Ac-WVTHR[NMeLeu]AGLLSR[NMeSer]GGVVRKNFVPTDVGPFAF-NH2; PEG-conjugated (Table 2C: in most cases at Lys^25)) [PEG-peptide of SEQ ID NO 874]	208 nM	–
